Measurements reported in patent publication US20250011363A1, “OPTIMIZED SHORTENED PEPTIDE THAT BINDS TO ACETYLCHOLINE RECEPTOR, AND USE THEREOF” (SKINMED CO., LTD., priority 2021, published 2025).

What follows are binders tested against acetylcholine receptor (assay: SPR, AchR immobilized on CM5 chip, peptide at 10 uM).

Binding affinity (RU) | Binder
32 | KKHSEK [6mer-1-862]
27 | RKCMVK [6mer-1-859]
151 | KQVYKK [6mer-2-339]
15 | RKCDVR [6mer-1-855]
22 | RKHWWR [6mer-1-860]
142 | KQFQKK [6mer-2-337]
14 | KRPAFK [6mer-1-857]
145 | RSVQKR [6mer-2-338]
21 | KKMTAR [6mer-1-865]
153 | KWRSRR [6mer-2-335]
135 | KLITKR [6mer-2-336]
27 | KKKHKR [6mer-1-858]
21 | KRINIR [6mer-1-861]
27 | RRCTER [6mer-1-863]
32 | RRTWGR [6mer-1-864]
30 | KRMWFK [6mer-1-856]

Further lines, the binder ahead of its results:

Binder | Binding affinity (RU)
RRYMEK [6mer-1-851] | 30
KKFNWK [6mer-1-849] | 21
RKDAEK [6mer-1-846] | 28
KKPMNR [6mer-1-844] | 28
RRNPEK [6mer-1-850] | 29
RKTMFK [6mer-1-848] | 19
KKEAVR [6mer-1-854] | 16
RRFANK [6mer-1-842] | 11
KRASVK [6mer-1-852] | 19
KKDAPR [6mer-1-841] | 30
KKIDKK [6mer-1-845] | 23
KKYNHK [6mer-1-847] | 20
KKKTIK [6mer-1-843] | 28
KRCNGR [6mer-1-853] | 30
RKICNK [6mer-1-840] | 12
